Common to all, as to test: kinetic pause assay
Data set [1] deals with NusA NTD;RNA polymerase core (Escherichia coli;Escherichia coli, UniProt P0AFF6;P0A7Z4;P0A8V2;P0A8T7 1-137;1-329;1-1342;1-1407, |).
For data set [2], the target named is NusA NTD-S1;RNA polymerase core (Escherichia coli;Escherichia coli, UniProt P0AFF6;P0A7Z4;P0A8V2;P0A8T7 1-200;1-329;1-1342;1-1407, |).
Data set [3] deals with NusA NTD-S1-KH;RNA polymerase core (Escherichia coli;Escherichia coli, UniProt P0AFF6;P0A7Z4;P0A8V2;P0A8T7 1-348;1-329;1-1342;1-1407, |).

The results in this text go back to article PMC3682478.

Sequence of NusA NTD-S1;RNA polymerase core (P0AFF6 1-200, chain 1 of 4): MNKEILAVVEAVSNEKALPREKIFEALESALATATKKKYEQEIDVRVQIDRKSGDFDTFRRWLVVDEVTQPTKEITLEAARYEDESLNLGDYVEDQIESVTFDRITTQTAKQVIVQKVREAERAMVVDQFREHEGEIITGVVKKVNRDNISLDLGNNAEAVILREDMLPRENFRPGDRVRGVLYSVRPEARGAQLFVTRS
Sequence of NusA NTD-S1;RNA polymerase core (P0A7Z4 whole entry, chain 2 of 4): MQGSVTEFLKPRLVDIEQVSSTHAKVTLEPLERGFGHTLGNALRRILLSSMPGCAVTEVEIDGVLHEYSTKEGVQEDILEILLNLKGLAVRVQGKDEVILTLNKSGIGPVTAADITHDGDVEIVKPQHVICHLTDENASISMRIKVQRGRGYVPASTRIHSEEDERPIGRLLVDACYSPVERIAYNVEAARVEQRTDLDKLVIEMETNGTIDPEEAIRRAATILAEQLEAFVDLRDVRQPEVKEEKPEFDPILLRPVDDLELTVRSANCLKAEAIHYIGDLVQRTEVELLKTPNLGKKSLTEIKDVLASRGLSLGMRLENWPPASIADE
Sequence of NusA NTD-S1;RNA polymerase core (P0A8V2 whole entry, chain 3 of 4): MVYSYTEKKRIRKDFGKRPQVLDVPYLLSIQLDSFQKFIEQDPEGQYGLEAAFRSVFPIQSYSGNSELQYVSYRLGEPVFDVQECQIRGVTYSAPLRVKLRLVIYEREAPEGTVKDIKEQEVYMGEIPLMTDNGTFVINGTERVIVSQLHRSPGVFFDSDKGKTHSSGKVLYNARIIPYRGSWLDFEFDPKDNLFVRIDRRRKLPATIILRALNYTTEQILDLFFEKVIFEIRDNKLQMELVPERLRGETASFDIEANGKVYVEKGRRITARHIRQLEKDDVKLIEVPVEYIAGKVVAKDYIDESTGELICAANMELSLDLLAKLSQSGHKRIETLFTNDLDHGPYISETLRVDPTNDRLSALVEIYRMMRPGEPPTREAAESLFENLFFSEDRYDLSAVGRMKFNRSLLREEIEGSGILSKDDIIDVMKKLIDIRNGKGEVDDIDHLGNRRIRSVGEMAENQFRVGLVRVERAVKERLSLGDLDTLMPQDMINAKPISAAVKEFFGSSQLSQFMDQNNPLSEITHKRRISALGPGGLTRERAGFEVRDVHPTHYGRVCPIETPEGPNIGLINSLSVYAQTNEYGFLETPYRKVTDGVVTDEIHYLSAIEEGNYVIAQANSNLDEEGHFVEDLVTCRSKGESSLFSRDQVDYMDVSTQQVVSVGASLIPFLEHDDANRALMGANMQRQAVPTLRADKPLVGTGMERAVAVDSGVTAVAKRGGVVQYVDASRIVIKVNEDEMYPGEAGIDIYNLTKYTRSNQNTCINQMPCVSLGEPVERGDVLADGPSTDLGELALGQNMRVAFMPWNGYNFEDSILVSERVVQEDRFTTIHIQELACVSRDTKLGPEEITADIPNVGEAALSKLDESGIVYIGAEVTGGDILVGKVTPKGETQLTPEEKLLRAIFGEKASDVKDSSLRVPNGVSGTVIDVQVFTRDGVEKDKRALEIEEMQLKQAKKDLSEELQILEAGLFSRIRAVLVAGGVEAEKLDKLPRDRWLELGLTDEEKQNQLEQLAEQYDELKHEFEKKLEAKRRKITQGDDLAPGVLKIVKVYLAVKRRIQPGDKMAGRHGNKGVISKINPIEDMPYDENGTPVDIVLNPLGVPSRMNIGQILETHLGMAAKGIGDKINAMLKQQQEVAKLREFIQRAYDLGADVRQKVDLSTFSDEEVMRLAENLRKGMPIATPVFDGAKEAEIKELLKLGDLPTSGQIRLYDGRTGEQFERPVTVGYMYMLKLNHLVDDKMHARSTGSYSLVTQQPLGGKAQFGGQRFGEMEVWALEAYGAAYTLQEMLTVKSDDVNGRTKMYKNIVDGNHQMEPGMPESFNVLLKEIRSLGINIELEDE
Sequence of NusA NTD-S1;RNA polymerase core (P0A8T7 whole entry, chain 4 of 4): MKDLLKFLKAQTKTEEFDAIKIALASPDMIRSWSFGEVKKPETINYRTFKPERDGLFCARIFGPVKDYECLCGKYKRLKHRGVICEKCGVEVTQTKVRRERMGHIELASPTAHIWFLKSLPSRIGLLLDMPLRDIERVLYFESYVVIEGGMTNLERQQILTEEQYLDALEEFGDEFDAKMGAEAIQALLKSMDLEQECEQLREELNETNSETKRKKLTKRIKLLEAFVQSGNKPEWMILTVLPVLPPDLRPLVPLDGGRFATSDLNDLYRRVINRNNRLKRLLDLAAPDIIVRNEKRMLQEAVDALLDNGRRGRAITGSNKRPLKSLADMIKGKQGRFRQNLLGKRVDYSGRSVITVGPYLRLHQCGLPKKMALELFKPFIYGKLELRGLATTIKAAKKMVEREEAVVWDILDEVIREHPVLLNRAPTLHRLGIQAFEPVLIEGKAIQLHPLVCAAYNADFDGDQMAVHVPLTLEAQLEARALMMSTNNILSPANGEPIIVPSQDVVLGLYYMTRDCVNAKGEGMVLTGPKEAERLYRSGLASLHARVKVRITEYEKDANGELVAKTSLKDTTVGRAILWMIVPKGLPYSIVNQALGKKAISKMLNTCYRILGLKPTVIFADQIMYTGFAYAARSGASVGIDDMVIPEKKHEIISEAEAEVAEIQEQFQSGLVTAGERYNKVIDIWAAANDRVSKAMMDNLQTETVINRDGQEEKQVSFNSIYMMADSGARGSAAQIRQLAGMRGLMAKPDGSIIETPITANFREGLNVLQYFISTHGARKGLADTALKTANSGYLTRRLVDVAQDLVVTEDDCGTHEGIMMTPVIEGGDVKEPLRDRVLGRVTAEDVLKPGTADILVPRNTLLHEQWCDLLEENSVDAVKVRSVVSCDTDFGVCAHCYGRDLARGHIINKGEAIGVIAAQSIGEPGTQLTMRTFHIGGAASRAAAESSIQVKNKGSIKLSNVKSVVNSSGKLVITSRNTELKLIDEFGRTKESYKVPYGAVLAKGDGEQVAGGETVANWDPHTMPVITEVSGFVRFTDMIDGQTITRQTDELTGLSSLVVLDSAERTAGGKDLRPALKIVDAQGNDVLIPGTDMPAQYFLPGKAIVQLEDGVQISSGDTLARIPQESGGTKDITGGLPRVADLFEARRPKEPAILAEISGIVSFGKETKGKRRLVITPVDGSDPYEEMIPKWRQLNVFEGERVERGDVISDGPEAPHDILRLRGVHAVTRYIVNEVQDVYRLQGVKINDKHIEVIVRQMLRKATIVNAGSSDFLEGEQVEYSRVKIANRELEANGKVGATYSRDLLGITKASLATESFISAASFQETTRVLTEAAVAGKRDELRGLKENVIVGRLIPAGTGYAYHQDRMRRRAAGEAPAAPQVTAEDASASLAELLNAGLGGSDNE

B1: his PTC scaffold (RNA at U29) (mixed)
DNA 1: GGTCAGTACGTCCATTCGATCTTCGGAAGAGATTCAGAG
DNA 2: CTCTGAATCTCTTCCAGCACACATCAGGACGTACTGACC
RNA: CCUGACUAGUCUUUCAGGCGAUGUGUGCU
On to B1, for which the Ki came out at 55.4 ± 27.8 nM in data set [1], 74.6 ± 19.4 nM in data set [2] and 11.8 ± 8.7 nM in data set [3].

The term Ki denotes a measure of affinity in units of concentration, obtained from inhibition or displacement. Low values mean higher affinity, high ones lower affinity.
